Measurements: patent US8748480B2, “Methods for treating opioid tolerance” (priority 2005, dated 2014)

Assays:
Assay type in all cases: binding
Gβ1γ2 Lys57Ala = target: T1, Gβ1γ2 Lys57Ala (Rattus norvegicus, UniProt P54311, K57A); assay: Phage ELISA, b-βγ mutant Lys57Ala; conditions: alanine-substituted Lys57, C-Terminal Interface; mean ± SD
T1 construct: made in house; host or cells: Sf9 insect cells (baculovirus)
Excerpt: (§1) Wild-type Gβ1 and Gβ1 mutants were made in the baculovirus vector PDW464 which encodes a biotinylation site at a lysine upstream of the amino terminus of Gβ1 (Goubaeva, et al. (2003) supra). Mutants were generated by overlap extension PCR using standard protocols. The wild-type and mutant Gβ1 constructs consisted of a 20 amino acid biotin acceptor peptide (BAP) sequence fused in-frame with the amino-terminus of rat Gβ1 subunit. When coexpressed with biotin holoenzyme synthetase (BirA) in Sf9 cells, the Gβ1 subunit becomes covalently biotinylated in vivo at the Specific lysine acceptor residue in the BAP. Using this approach, 1-2 mg protein of purified protein can be obtained per liter of Sf9 insect cells. As 45 ng of protein is used in the phage ELISA assay, a single purification is sufficient for 10,000 to 30,000 binding assays.
(§2) Phage ELISA assays used to assess peptide binding to wild-type and mutant b-βγ were performed according to standard methods (Smrcka and Scott (2002) Methods Enzymol. 344:557-76). Briefly, 1 μg streptavidin was immobilized in the well of a […] overnight at 4° C. The wells were blocked with 100 μL of 2% bovine serum albumin (BSA) in Tris-buffered saline (TBS) for 1 hour at 4° C. followed by three washes of 1×TBS/0.5% TWEEN®. Forty μL of 25 nM bGβ1γ2 in TBS/0.5% TWEEN® was added to each well and incubated at 4° C. for 1.5 hour. The wells were washed, followed by the addition of 1×10^6 to 1×10^10 phage particles and incubated at 4° C. for 3 hours. The wells were then washed six times with TBS/0.5% TWEEN® followed by addition of 40 μL of 1:5000 dilution of anti-M13 antibody (Pharmacia, Uppsala, Sweden) and incubated at room temperature for 1 hour. The wells were washed, followed by the addition of 40 μL of (2,2′-Azino-bis(3-ethylbenzthiazoline)-6-sulfonic acid (ABTS) and the colorimetric reaction was monitored at 405 nm. Non-specific binding was subtracted for each reading.
(§3) Both assays were then carried out with Gβ1γ2 heterodimers containing mutations in the Gβ1 subunit.
(§4) The nine peptides were selected to represent the different consensus groups of peptides previously identified (See Scott et al. (2001) supra; Table 9) and to compare binding characteristics within and between consensus groups. […] As disclosed herein, the binding signal obtained in the ELISA assay was correlated to a loss in affinity by comparing the results to behavior of the peptide in a solution based assay. […] For the purposes of present disclosure, any substitution that decreased the binding to less than 20% of the wild-type binding was considered to be a critical binding contact for that peptide.

Gβ1γ2 Tyr59Ala = target: T2, Gβ1γ2 Tyr59Ala (Rattus norvegicus, UniProt P54311, Y59A); assay: Phage ELISA, b-βγ mutant Tyr59Ala; conditions: alanine-substituted Tyr59, C-Terminal Interface; mean ± SD
T2 construct: made in house; host or cells: Sf9 insect cells (baculovirus)
T2 sequence (P54311 whole entry Y59A): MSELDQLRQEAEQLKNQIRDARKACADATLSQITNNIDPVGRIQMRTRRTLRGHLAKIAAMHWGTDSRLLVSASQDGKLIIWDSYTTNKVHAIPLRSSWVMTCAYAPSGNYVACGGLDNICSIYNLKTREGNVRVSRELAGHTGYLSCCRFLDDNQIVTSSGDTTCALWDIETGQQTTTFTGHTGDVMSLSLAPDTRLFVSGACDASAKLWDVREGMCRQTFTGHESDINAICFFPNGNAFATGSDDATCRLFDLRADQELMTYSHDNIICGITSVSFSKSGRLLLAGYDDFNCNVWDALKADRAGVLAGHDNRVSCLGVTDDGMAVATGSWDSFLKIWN
T2 sequence (P63212 2-68 partner limits assumed): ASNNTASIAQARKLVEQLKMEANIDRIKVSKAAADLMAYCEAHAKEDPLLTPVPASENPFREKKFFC
Excerpt: as §1, with “BAP.” for “BAP. Using this approach, 1-2 mg protein of purified protein can be obtained per liter of Sf9 insect cells. As 45 ng of protein is used in the phage ELISA assay, a single purification is sufficient for 10,000 to 30,000 binding assays.”
as §2, with “Forty μL of 25 nM bGβ1γ2 in TBS/0.5% TWEEN® was added to each well and incubated at 4° C. for 1.5 hour.” left out
as §3
The nine peptides were selected to represent the different consensus groups of peptides previously identified (See Scott et al. (2001) supra; Table 9) and to compare binding characteristics within and between consensus groups. […] For the purposes of present disclosure, any substitution that decreased the binding to less than 20% of the wild-type binding was considered to be a critical binding contact for that peptide.

Gβ1γ2 Trp99Ala = target: T3, Gβ1γ2 Trp99Ala (Rattus norvegicus, UniProt P54311, W99A); assay: Phage ELISA, b-βγ mutant Trp99Ala; conditions: alanine-substituted Trp99, C-Terminal Interface; mean ± SD
T3 construct: made in house; host or cells: Sf9 insect cells (baculovirus)
T3 sequence (P54311 whole entry W99A): as the sequence (P54311 whole entry Y59A) above, with A59Y, W99A counted along it
T3 sequence (P63212 2-68 partner limits assumed): as the sequence (P63212 2-68 partner limits assumed) above
Excerpt: as §1, §2, §3, §4

Gβ1γ2 Met101Ala = target: T4, Gβ1γ2 Met101Ala (Rattus norvegicus, UniProt P54311, M101A); assay: Phage ELISA, b-βγ mutant Met101Ala; conditions: alanine-substituted Met101, C-Terminal Interface; mean ± SD
T4 construct: made in house; host or cells: Sf9 insect cells (baculovirus)
T4 sequence (P54311 whole entry M101A): as the sequence (P54311 whole entry Y59A) above, with A59Y, M101A counted along it
T4 sequence (P63212 2-68 partner limits assumed): as the sequence (P63212 2-68 partner limits assumed) above
Excerpt: as §1, §2, §3, §4

Gβ1γ2 Leu117Ala = target: T5, Gβ1γ2 Leu117Ala (Rattus norvegicus, UniProt P54311, L117A); assay: Phage ELISA, b-βγ mutant Leu117Ala; conditions: alanine-substituted Leu117, C-Terminal Interface; mean ± SD
T5 construct: made in house; host or cells: Sf9 insect cells (baculovirus)
T5 sequence (P54311 whole entry L117A): as the sequence (P54311 whole entry Y59A) above, with A59Y, L117A counted along it
T5 sequence (P63212 2-68 partner limits assumed): as the sequence (P63212 2-68 partner limits assumed) above
Excerpt: as §1, §2, §3, §4

Gβ1γ2 Tyr145Ala = target: T6, Gβ1γ2 Tyr145Ala (Rattus norvegicus, UniProt P54311, Y145A); assay: Phage ELISA, b-βγ mutant Tyr145Ala; conditions: alanine-substituted Tyr145, N-Terminal Interface; mean ± SD
T6 construct: made in house; host or cells: Sf9 insect cells (baculovirus)
T6 sequence (P54311 whole entry Y145A): as the sequence (P54311 whole entry Y59A) above, with A59Y, Y145A counted along it
T6 sequence (P63212 2-68 partner limits assumed): as the sequence (P63212 2-68 partner limits assumed) above
Excerpt: as §1, §2, §3, §4

Gβ1γ2 Asp186Ala = target: T7, Gβ1γ2 Asp186Ala (Rattus norvegicus, UniProt P54311, D186A); assay: Phage ELISA, b-βγ mutant Asp186Ala; conditions: alanine-substituted Asp186, N-Terminal Interface; mean ± SD
T7 construct: made in house; host or cells: Sf9 insect cells (baculovirus)
T7 sequence (P54311 whole entry D186A): as the sequence (P54311 whole entry Y59A) above, with A59Y, D186A counted along it
T7 sequence (P63212 2-68 partner limits assumed): as the sequence (P63212 2-68 partner limits assumed) above
Excerpt: as §1, §2, §3, §4

Gβ1γ2 Met188Ala = target: T8, Gβ1γ2 Met188Ala (Rattus norvegicus, UniProt P54311, M188A); assay: Phage ELISA, b-βγ mutant Met188Ala; conditions: alanine-substituted Met188, Shared; mean ± SD
T8 construct: made in house; host or cells: Sf9 insect cells (baculovirus)
T8 sequence (P54311 whole entry M188A): as the sequence (P54311 whole entry Y59A) above, with A59Y, M188A counted along it
T8 sequence (P63212 2-68 partner limits assumed): as the sequence (P63212 2-68 partner limits assumed) above
Excerpt: as §1, §2, §3, §4

Gβ1γ2 Asn230Ala = target: T9, Gβ1γ2 Asn230Ala (Rattus norvegicus, UniProt P54311, N230A); assay: Phage ELISA, b-βγ mutant Asn230Ala; conditions: alanine-substituted Asn230, N-Terminal Interface; mean ± SD
T9 construct: made in house; host or cells: Sf9 insect cells (baculovirus)
T9 sequence (P54311 whole entry N230A): as the sequence (P54311 whole entry Y59A) above, with A59Y, N230A counted along it
T9 sequence (P63212 2-68 partner limits assumed): as the sequence (P63212 2-68 partner limits assumed) above
Excerpt: as §1, §2, §3, §4

Gβ1γ2 Asp246Ser = target: T10, Gβ1γ2 Asp246Ser (Rattus norvegicus, UniProt P54311, D246S); assay: Phage ELISA, b-βγ mutant Asp246Ser; conditions: Asp246 mutant (Asp246Ser), N-Terminal Interface; mean ± SD
T10 construct: made in house; host or cells: Sf9 insect cells (baculovirus)
T10 sequence (P54311 whole entry D246S): as the sequence (P54311 whole entry Y59A) above, with A59Y, D246S counted along it
T10 sequence (P63212 2-68 partner limits assumed): as the sequence (P63212 2-68 partner limits assumed) above
Excerpt: as §1, §2, §3, §4

Gβ1γ2 His311Ala = target: T11, Gβ1γ2 His311Ala (Rattus norvegicus, UniProt P54311, H311A); assay: Phage ELISA, b-βγ mutant His311Ala; conditions: alanine-substituted His311, Indirect; mean ± SD
T11 construct: made in house; host or cells: Sf9 insect cells (baculovirus)
T11 sequence (P54311 whole entry H311A): as the sequence (P54311 whole entry Y59A) above, with A59Y, H311A counted along it
T11 sequence (P63212 2-68 partner limits assumed): as the sequence (P63212 2-68 partner limits assumed) above
Excerpt: as §1, §2, §3, §4

Gβ1γ2 Arg314Ala = target: T12, Gβ1γ2 Arg314Ala (Rattus norvegicus, UniProt P54311, R314A); assay: Phage ELISA, b-βγ mutant Arg314Ala; conditions: alanine-substituted Arg314, Indirect; mean ± SD
T12 construct: made in house; host or cells: Sf9 insect cells (baculovirus)
T12 sequence (P54311 whole entry R314A): as the sequence (P54311 whole entry Y59A) above, with A59Y, R314A counted along it
T12 sequence (P63212 2-68 partner limits assumed): as the sequence (P63212 2-68 partner limits assumed) above
Excerpt: as §1, §2, §3, §4

Gβ1γ2 Trp332Ala = target: T13, Gβ1γ2 Trp332Ala (Rattus norvegicus, UniProt P54311, W332A); assay: Phage ELISA, b-βγ mutant Trp332Ala; conditions: alanine-substituted Trp332, C-Terminal Interface; mean ± SD
T13 construct: made in house; host or cells: Sf9 insect cells (baculovirus)
T13 sequence (P54311 whole entry W332A): as the sequence (P54311 whole entry Y59A) above, with A59Y, W332A counted along it
T13 sequence (P63212 2-68 partner limits assumed): as the sequence (P63212 2-68 partner limits assumed) above
Excerpt: as §1, §2, §3, §4

T1 sequence (P54311 whole entry K57A): as the sequence (P54311 whole entry Y59A) above, with K57A, A59Y counted along it
T1 sequence (P63212 2-68 partner limits assumed): as the sequence (P63212 2-68 partner limits assumed) above

Row | Sequence | % of Wild-Type Signal, Lys57 (Gβ1γ2 Lys57Ala) | % of Wild-Type Signal, Tyr59 (Gβ1γ2 Tyr59Ala) | % of Wild-Type Signal, Trp99 (Gβ1γ2 Trp99Ala) | % of Wild-Type Signal, Met101 (Gβ1γ2 Met101Ala) | % of Wild-Type Signal, Leu117 (Gβ1γ2 Leu117Ala) | % of Wild-Type Signal, Tyr145 (Gβ1γ2 Tyr145Ala) | % of Wild-Type Signal, Asp186 (Gβ1γ2 Asp186Ala) | % of Wild-Type Signal, Met188 (Gβ1γ2 Met188Ala) | % of Wild-Type Signal, Asn230 (Gβ1γ2 Asn230Ala) | % of Wild-Type Signal, Asp246 (Gβ1γ2 Asp246Ser) | % of Wild-Type Signal, His311 (Gβ1γ2 His311Ala) | % of Wild-Type Signal, Arg314 (Gβ1γ2 Arg314Ala) | % of Wild-Type Signal, Trp332 (Gβ1γ2 Trp332Ala)
1 | WCPPKAMTQLGIKAC [C14] | 3.0 ± 5.0% | 3.6 ± 2.0% | 10.1 ± 3.3% | 1.1 ± 4.9% | 3.8 ± 9.2% | 1.9 ± 5.9% | 3.6 ± 1.9% | 9.9 ± 3.8% | 60.0 ± 26.5% | 6.3 ± 13.9% | 6.1 ± 3.4% | 3.9 ± 7.9% | 1.6 ± 2.4%
2 | WCPPKLEQWYDGCA [C2] | −1.2 ± 4.5% | −1.7 ± 4.8% | −1.0 ± 5.1% | 157.1 ± 51.5% | 1.5 ± 5.5% | 4.5 ± 8.1% | 267.2 ± 40.6% | −0.7 ± 2.5% | 0.0 ± 3.3% | 5.9 ± 5.7% | 11.7 ± 8.0% | 1.3 ± 3.1% | 4.7 ± 6.2%
